One may read the Kd as the free concentration of one partner at which half of the binding sites on the other are occupied at equilibrium, for simple one-to-one binding. Higher therefore signals a looser complex.

Changes are numbered by the printed parent chain. Names may count otherwise.

Drawing on PMC6525205, “Structure of the human frataxin-bound iron-sulfur cluster assembly complex provides insight into its activation mechanism” (Nature Communications, 2019), this text covers Kd for seven molecules.

First the molecules themselves.
B1: human frataxin (FXN) (Δ1-80), wild-type (domain or fragment, UniProt Q16595 81-210, looked up)
chain: SGTLGHPGSLDETTYERLAEETLDSLAEFFEDLADKPYTFEDYDVSFGSGVLTVKLGGDLGTYVINKQTPNKQIWLSSPSSGPKRYDWTGKNWVYSHDGVSLHELLAAELTKALKTKLDLSSLAYSGKDA
notes: frataxin (FXN), human, Δ1-80; Cloned into pCDF-LIC-Bsa4; Two copies of FXN stand in the SDAUF heterodecamer; also called FXN(WT); WT; source: E. coli BL21(DE3)-R3-pRARE2, purified (Ni Sepharose, Superdex S75, TEV, reverse Ni); for cryo-EM co-expressed with the His-ISD11/NFS1/ISCU plasmid and purified as the SDAUF complex
B2: FXN(P163G) (domain or fragment, human, UniProt Q16595 81-210, looked up)
chain: B1 chain with P83G
notes: frataxin (FXN), human, Δ1-80, site-directed variant (Gly is the bacterial equivalent residue); Variant of m1
B3: FXN(R165C) (domain or fragment, human, UniProt Q16595 81-210, looked up)
chain: B1 chain with R85C
notes: frataxin (FXN), human, Δ1-80, clinical variant of Friedreich's ataxia; Variant of m1
B4: FXN(D124A) (domain or fragment, human, UniProt Q16595 81-210, looked up)
chain: B1 chain with D44A
notes: frataxin (FXN), human, Δ1-80, site-directed variant; Variant of m1
B5: FXN(N151A) (domain or fragment, human, UniProt Q16595 81-210, looked up)
chain: B1 chain with N71A
notes: as for B4
B6: FXN(W155R) (domain or fragment, human, UniProt Q16595 81-210, looked up)
chain: B1 chain with W75R
notes: as for B3
B7: FXN(N146K) (domain or fragment, human, UniProt Q16595 81-210, looked up)
chain: B1 chain with N66K
notes: as for B3

T1 sequence (Q9Y697 56-457, chain 1 of 4): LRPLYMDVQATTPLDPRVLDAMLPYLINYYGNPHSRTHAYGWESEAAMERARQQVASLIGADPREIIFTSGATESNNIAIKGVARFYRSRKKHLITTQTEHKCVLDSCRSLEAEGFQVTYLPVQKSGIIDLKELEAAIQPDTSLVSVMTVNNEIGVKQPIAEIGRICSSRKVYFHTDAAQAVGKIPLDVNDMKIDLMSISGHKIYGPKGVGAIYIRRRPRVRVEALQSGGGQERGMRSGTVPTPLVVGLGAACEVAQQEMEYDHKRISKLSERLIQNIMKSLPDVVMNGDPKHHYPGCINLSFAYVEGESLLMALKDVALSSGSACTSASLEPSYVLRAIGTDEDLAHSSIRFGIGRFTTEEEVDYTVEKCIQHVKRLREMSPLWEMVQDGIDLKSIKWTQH
T1 sequence (Q9HD34 whole entry, chain 2 of 4, canonical isoform): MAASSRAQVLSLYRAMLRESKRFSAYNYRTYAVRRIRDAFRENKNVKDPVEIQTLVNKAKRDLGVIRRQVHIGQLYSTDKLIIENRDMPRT
T1 sequence (P0A6A8 1-74, chain 3 of 4): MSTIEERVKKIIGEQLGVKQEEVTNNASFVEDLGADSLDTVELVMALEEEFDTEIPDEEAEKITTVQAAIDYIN
T1 sequence (Q9H1K1 35-167, chain 4 of 4): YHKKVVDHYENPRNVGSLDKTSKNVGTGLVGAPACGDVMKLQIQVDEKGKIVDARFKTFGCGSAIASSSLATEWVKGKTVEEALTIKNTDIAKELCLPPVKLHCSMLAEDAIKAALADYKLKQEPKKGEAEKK

The experiment addresses T1, NFS1-ISD11-ACP-ISCU complex with biotinylated ISCU (SDAUb) (human | E. coli, UniProt Q9Y697 56-457; Q9HD34 1-91; P0A6A8 1-74; Q9H1K1 35-167, pyridoxal 5′-phosphate covalently-linked to Lys258 | 4′-phosphopantetheine (4′-PP) acyl-chain attached to Ser37 | biotin (site and method not stated)).
T1 construct: NFS1 cysteine desulfurase, human, Δ1-55; C-terminal residue printed as His457; ISD11/LYRM4, human; E. coli acyl carrier protein (ACPec), endogenous in the expression host, co-purified; ISCU scaffold protein, human, isoform 1, Δ1-34; the related SDAUF complex holds two copies of each chain; source: purified SDA (E. coli) combined with biotinylated ISCU (E. coli) and isolated on Superdex 200 …
As to the kind of experiment: BLI; SDAUb complex (biotinylated ISCU) at 0.1 mg/mL loaded on streptavidin sensors; FXN 500 µM to 1 nM in solution; 25 °C; 50 mM HEPES pH 7.5, 200 mM NaCl, 5% glycerol, 2 mM TCEP, 5 mM DTT, 0.5 mg/mL BSA; Kd from response vs. [FXN], one site-specific binding fit. The conditions noted are these: both partners purified. (In general: Biolayer interferometry detects binding as a change in optical thickness at a sensor tip.)
In turn, B1 came in with a Kd of 3.32 µM.

B2: binding was characterised by a dissociation constant (Kd) of 38.5 µM.

The molecule B3 displayed a Kd of 134 µM.

Molecule B4 had a Kd of 14.4 µM.

In the case of B5, the equilibrium dissociation constant (Kd) worked out at 9.45 µM.

B6 gave a Kd of 253 µM.

B7: the Kd stood at 177 µM.
